Target: ALKBH5 74-292 (human, UniProt Q6P6C2 74-292)
Assay: X-ray crystallography; Mn2+, sulfate in 2OG site (NOG added but not observed); 2.1 A, P32; GG(m6A)C ordered; Complex formation: 25 mM Tris pH 7.5, 400 uM protein, 333 uM RNA, 2 mM MnCl2, 2 or 10 mM NOG or 10 mM 2OG, on ice 30 min, then SEC in 25 mM Tris pH 7.5; mutant
Settings: protein: recombinant; tags: N-terminal His6, removed by TEV protease; single strand

ALKBH5 74-292, sequence (Q6P6C2 74-292): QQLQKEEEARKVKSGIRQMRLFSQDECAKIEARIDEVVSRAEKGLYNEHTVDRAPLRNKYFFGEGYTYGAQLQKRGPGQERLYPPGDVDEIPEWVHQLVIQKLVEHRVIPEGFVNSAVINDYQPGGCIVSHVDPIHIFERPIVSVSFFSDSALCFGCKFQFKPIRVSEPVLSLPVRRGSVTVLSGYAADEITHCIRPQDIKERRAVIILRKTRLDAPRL

UGGACUGC (ssRNA, N6-methyladenosine at position 4 (m6A)) [8-mer m6A ssRNA]: binds.
